Results published in patent US20170037110A1 (IMMATICS BIOTECHNOLOGIES, published 2017).

Molecular target: T1, HLA-A*02:01 (human)
T1 construct: monomers captured on streptavidin plates; also called MHC class I
Experiment: UV peptide exchange ELISA
From the text: Candidate peptides for T cell based therapies according to the present invention were further tested for their MHC binding capacity (affinity). The individual peptide-MHC complexes were produced by UV-ligand exchange, where a UV-sensitive peptide is cleaved upon UV-irradiation, and exchanged with the peptide of interest as analyzed. Only peptide candidates that can effectively bind and stabilize the peptide-receptive MHC molecules prevent dissociation of the MHC complexes. To determine the yield of the exchange reaction, an ELISA was performed based on the detection of the light chain (p2m) of stabilized MHC complexes.
96 well MAXISorp plates (NUNC) were coated over night with 2 μg/ml streptavidin in PBS at room temperature, washed 4× and blocked for 1 h at 37° C. in 2% BSA containing blocking buffer. […] Peptide-MHC monomers of the UV-exchange reaction were diluted 100 fold in blocking buffer. Samples were incubated for 1h at 37° C., washed four times, incubated with 2 μg/ml HRP conjugated anti-p2m for 1h at 37° C., washed again and detected with TMB solution that is stopped with […]. Absorption was measured at 450 nm.

Binder | peptide exchange yield
YLVAKLVEV | 20 to 50%
KITDTLIHL | 50 to 75%
SMIDDLLGV | 50 to 75%
ALGNTVPAV | 50 to 75%
ALQDFLLSV | 50 to 75%
YLMDESLNL | 50 to 75%
LLFGGTKTV | 20 to 50%
GLDAATATV | 20 to 50%
YVLEFLEEI | 20 to 50%
NLIENVQRL | 20 to 50%
FLPPEHTIVYI | 50 to 75%
VLLTFKIFL | 20 to 50%
VLASYNLTV | 50 to 75%
LLWGDLIWL | 50 to 75%
ALSEEGLLVYL | 50 to 75%
LLLNELPSV | 50 to 75%
ALLEAQDVELYL | 20 to 50%
LLIGTDVSL | 50 to 75%
KISPVTFSV | 50 to 75%
LLQKFVPEI | 20 to 50%
TLLAFIMEL | 50 to 75%
LLLDEEGTFSL | 20 to 50%
ALLENIALYL | 50 to 75%
KLIESKHEV | 20 to 50%

Binder | peptide exchange yield
VLSETLYEL | 20 to 50%
VLFQGQASL | 50 to 75%
SALEELVNV | 20 to 50%
VLLPNDLLEKV | 50 to 75%
TLIDAQWVL | 50 to 75%
ALWDQDNLSV | 20 to 50%
FLSPQQPPLLL | 20 to 50%
AMQEYIAVV | 20 to 50%
KLSDIGITV | 50 to 75%
AAFAGKLLSV | 50 to 75%
SLLKVLPAL | 50 to 75%
ALIHPVSTV | 20 to 50%
LLWEVVSQL | 50 to 75%
ALYEEGLLL | 20 to 50%
LVYPLELYPA | 50 to 75%
SLVEVNPAYSV | 50 to 75%
SIFSAFLSV | 50 to 75%
AIAYILQGV | 20 to 50%
MLYVVPIYL | 20 to 50%
ALMNTLLYL | 20 to 50%
ELAERVPAI | 20 to 50%
GLLPGDRLVSV | 50 to 75%
RLPGPLGTV | 20 to 50%
NLWEDPYYL | 50 to 75%

Binder | peptide exchange yield
LLWPGAALL | 20 to 50%
LLDGFLVNV | 50 to 75%
RVLEVGALQAV | 20 to 50%
ALMEDTGRQML | 20 to 50%
SLFGGTEITI | 50 to 75%
GLLEAKVSL | 50 to 75%
QLINHLHAV | 50 to 75%
YLNDLHEVLL | ≥ 75%
AAYGGLNEKSFV | 50 to 75%
SLLFSLFEA | 20 to 50%
ALLEASGTLLL | ≥ 75%
LLLNAVLTV | 20 to 50%
ILLEQAFYL | 50 to 75%
YLISFQTHI | 50 to 75%
FLFPNQYVDV | 50 to 75%
NLFQSVREV | 20 to 50%
ALYTGFSILV | 20 to 50%
LLVSNLDFGV | 50 to 75%
FLLDLDPLLL | 50 to 75%
SLQEQLHSV | 50 to 75%
ILVDWLVEV | 10 to 20%
ILVDWLVQV | 50 to 75%
